According to patent publication US20160376353A1 (DECIMMUNE THERAPEUTICS, published 2016):
Ends that are not written are not given here.

T1: Biotin-labeled N2 peptide (also: biotin label, position not given here)
T1 construct: also called immobilized N2
T1 peptide: LMKNMDPLNDNV

T2: N2 peptide (non-muscle myosin neo-epitope N2 12mer sequence)
T2 construct: also called N2 12-mer peptide
T2 peptide: LMKNMDPLNDNV


How the values were obtained:
[1] = target: T1, Biotin-labeled N2 peptide; test: SPR (BIACORE X100), biotin-N2 peptide on NeutrAvidin chip, antibody in solution; kd/ka (monovalent)
Text: (§1) The remaining sequences represent the germline sequences with the highest homology that encode productive antibody. All of the humanized sequences maintain the murine 21G6 CDR regions which are shown inside the boxes in FIG. 1. The humanized variable regions were cloned into a vector containing wild type human IgG1, human IgG1 containing a mutation at amino acid 297 (Asn 297 to Q297), human IgG4 containing a mutation at amino acid 228 (serine to proline) and human kappa light chain. Each antibody (heavy and light) combination was expressed by transient co-transfection in 293A cells (in the presence of low Ig serum). The antibody containing supernatants were collected and analyzed for binding to the N2 peptide by ELISA and BIACORE™ X100 system. All experiments were performed using a BIACORE™ X100 system. For antibody capture experiments, a CM5 chip was prepared by 10 ul/minute injection of EDC/NHS (N-ethyl-N′-(3-dimethylaminopropyl) carbodiimide (EDC), N-hydroxysuccinimide (NHS) for 7 minutes, followed by a 10 ul/minute injection of anti-human Fc (GE Lifesciences) at a concentration of 25 ug/ml in sodium acetate at pH 5 for 3 minutes. Ethanolamine-HCl was injected for 7 minutes at 10 ul/minute. The chimeric or humanized antibodies were captured onto flow cell 2 and N2 peptide at varying concentrations was flowed over flow cells 1 and 2 at a rate of 30 ul/minute with a contact time of 120 seconds and a dissociation period of 120 seconds. Complete removal of captured antibody was accomplished by regeneration with 3M MgCl2 for 30 seconds at a flow rate of 10 ul/minute. For peptide immobilized experiments, a CM5 chip was prepared by 10 ul/minute injection of EDC/NHS (N-ethyl-N′-(3-dimethylaminopropyl) carbodiimide (EDC), N-hydroxysuccinimide (NHS) for 7 minutes, followed by a 10 ul/minute injection of NEUTRAVIDIN® protein (ThermoFisher Pierce) at a concentration of 5 ug/ml in sodium acetate, pH 5 to an immobilization response of 100-200RU. Ethanolamine-HCl was injected for 7 minutes at 10 ul/minute. Biotin-labeled N2 peptide was captured on flow channel 2 with the goal of an experimental Rmax of about 50-100RU. Purified chimeric or humanized antibodies were flowed over both flow channels at a rate of 30 ul/min for a contact time of 120 seconds and allowed to dissociate for 600 seconds.

[2] = target: T1, Biotin-labeled N2 peptide; test: SPR (BIACORE X100), biotin-N2 peptide on NeutrAvidin chip, antibody in solution; upper end of the printed range 1-11
Text: (§2) The remaining sequences represent the germline sequences with the highest homology that encode productive antibody. All of the humanized sequences maintain the murine 21G6 CDR regions which are shown inside the boxes in FIG. 1. The humanized variable regions were cloned into a vector containing wild type human IgG1, human IgG1 containing a mutation at amino acid 297 (Asn 297 to Q297), human IgG4 containing a mutation at amino acid 228 (serine to proline) and human kappa light chain. Each antibody (heavy and light) combination was expressed by transient co-transfection in 293A cells (in the presence of low Ig serum). The antibody containing supernatants were collected and analyzed for binding to the N2 peptide by ELISA and BIACORE™ X100 system. All experiments were performed using a BIACORE™ X100 system. […]

[3] = target: T1, Biotin-labeled N2 peptide; test: SPR (BIACORE X100), biotin-N2 peptide on NeutrAvidin chip, antibody in solution; steady state affinity
Text: as §1, with “The” for “The remaining sequences represent the germline sequences with the highest homology that encode productive antibody. All of the humanized sequences maintain the murine 21G6 CDR regions which are shown inside the boxes in FIG. 1. The”

[4] = target: T1, Biotin-labeled N2 peptide; test: SPR (BIACORE X100), biotin-N2 peptide on NeutrAvidin chip, antibody in solution; upper end of the printed range 5-53
Text: as §2

[5] = target: T2, N2 peptide (non-muscle myosin …); test: SPR (BIACORE X100), immobilized antibody, N2 peptide in solution; lower end of the printed range 4-6 uM
Text: as §2

[6] = target: T2, N2 peptide (non-muscle myosin …); test: SPR (BIACORE X100), antibody captured by anti-human Fc, N2 peptide in solution
Text: as §1

[7] = target: T1, Biotin-labeled N2 peptide; test: SPR (BIACORE X100), biotin-N2 peptide on NeutrAvidin chip, antibody in solution; upper end of the printed range 7-10
Text: as §2

[8] = target: T1, Biotin-labeled N2 peptide; test: SPR (BIACORE X100), biotin-N2 peptide on NeutrAvidin chip, antibody in solution; upper end of the printed range 7-19
Text: as §2

[9] = target: T2, N2 peptide (non-muscle myosin …); test: SPR (BIACORE X100), IgG capture and direct immobilization of antibody, N2 peptide in solution
Text: as §2

[10] = target: T1, Biotin-labeled N2 peptide; test: SPR (BIACORE X100), biotin-N2 peptide on NeutrAvidin chip, antibody in solution; upper end of the printed range 2.0-3.2
Text: as §2

[11] = target: T1, Biotin-labeled N2 peptide; test: SPR (BIACORE X100), biotin-N2 peptide on NeutrAvidin chip, antibody in solution; upper end of the printed range 8.6-9.1
Text: as §2

[12] = target: T1, Biotin-labeled N2 peptide; test: SPR (BIACORE X100), biotin-N2 peptide on NeutrAvidin chip, antibody in solution; upper end of the printed range 2.0-5.2
Text: as §2

[13] = target: T1, Biotin-labeled N2 peptide; test: SPR (BIACORE X100), biotin-N2 peptide on NeutrAvidin chip, antibody in solution; upper end of the printed range 3-6.5
Text: as §2

[14] = target: T1, Biotin-labeled N2 peptide; test: SPR (BIACORE X100), biotin-N2 peptide on NeutrAvidin chip, antibody in solution; upper end of the printed range 4.3-6.5
Text: as §2

[15] = target: T1, Biotin-labeled N2 peptide; test: SPR (BIACORE X100), biotin-N2 peptide on NeutrAvidin chip, antibody in solution; upper end of the printed range 1.5-4.3
Text: as §2

Kd [1] | Kd [3] | Binder | further results
200 to 400 nM | 313 to 540 nM | Murine 21G6 antibody (antibody, V domains shown, also called m21G6) VH: QVQLQQPGAELVKPGASVKLSCKASGYTFTSYYMYWVKQRPGQGLEWIGGINPSNGGTNFNEKFKSKATLTVDKSSSTAYMQLSSLTSEDSAVYYCTRWGYDREWFAYWGQGTLVTVSA VL: DIVMTQAAPSVPVTPGESVSISCRSSKSLLHSNGNTYLYWFLQRPGQSPQVLIYRMSNLASGVPDRFSGSGSGTAFTLRISRVEAEDVGVYYCMQHLEYPFTFGSGTKLEIKR | kon [2]: 110000 M⁻¹ s⁻¹; koff [4]: 0.053 s⁻¹; Kd [5]: 4000 to 6000 nM
100 to 200 nM | 196 to 240 nM | Chimeric 21G6, human heavy chain constant region IgG1 with Q297 mutation (antibody, V domains shown, Human IgG1 constant region with Asn 297 to Gln; also called ch21G6 N297Q) VH: QVQLQQPGAELVKPGASVKLSCKASGYTFTSYYMYWVKQRPGQGLEWIGGINPSNGGTNFNEKFKSKATLTVDKSSSTAYMQLSSLTSEDSAVYYCTRWGYDREWFAYWGQGTLVTVSA VL: DIVMTQAAPSVPVTPGESVSISCRSSKSLLHSNGNTYLYWFLQRPGQSPQVLIYRMSNLASGVPDRFSGSGSGTAFTLRISRVEAEDVGVYYCMQHLEYPFTFGSGTKLEIKR | Kd [6]: 5600 nM; kon [7]: 100000 M⁻¹ s⁻¹; koff [8]: 0.019 s⁻¹
800 nM | 113 nM | Chimeric 21G6, human heavy chain constant region IgG4 (antibody, V domains shown, Human IgG4 constant region; also called CHIgG4 / Ch; ch21G6 IgG4) VH: QVQLQQPGAELVKPGASVKLSCKASGYTFTSYYMYWVKQRPGQGLEWIGGINPSNGGTNFNEKFKSKATLTVDKSSSTAYMQLSSLTSEDSAVYYCTRWGYDREWFAYWGQGTLVTVSA VL: DIVMTQAAPSVPVTPGESVSISCRSSKSLLHSNGNTYLYWFLQRPGQSPQVLIYRMSNLASGVPDRFSGSGSGTAFTLRISRVEAEDVGVYYCMQHLEYPFTFGSGTKLEIKR | Kd [6]: 4100 nM
– | – | H4-21G6 / L2-21G6, human IgG1 N297Q (antibody, V domains shown, also called H4/L2 N297Q) VH: QVQLVQSGAEVKKPGASVKVSCKASGYTFTSYYMYWVRQAPGQGLEWMGGINPSNGGTNFNEKFKSRVTMTTDTSTSTAYMELRSLRSDDTAVYYCTRWGYDREWFAYWGQGTLVTVSS VL: DIVMTQSPLSLPVTPGEPASISCRSSKSLLHSNGNTYLYWFLQKPGQSPQLLIYRMSNLASGVPDRFSGSGSGTDFTLKISRVEAEDVGVYYCMQHLEYPFTFGQGTKLEIKR | Kd [9]: 6000 to 11000 nM
280 to 420 nM | 240 nM | H2-21G6 / L2-21G6 (Table 2, constant region not stated) (antibody, V domains shown, human kappa light chain; also called H2/L2) VH: QVQLVQSGAEVKKPGASVKVSCKASGYTFTSYYMYWVRQAPGQGLEWIGGINPSNGGTNFNEKFKSKATMTVDKSTSTAYMELRSLRSDDSAVYYCTRWGYDREWFAYWGQGTLVTVSS VL: DIVMTQSPLSLPVTPGEPASISCRSSKSLLHSNGNTYLYWFLQKPGQSPQLLIYRMSNLASGVPDRFSGSGSGTDFTLKISRVEAEDVGVYYCMQHLEYPFTFGQGTKLEIKR | kon [10]: 32000 M⁻¹ s⁻¹; koff [11]: 0.0091 s⁻¹
300 nM | 280 nM | H3-21G6 / L1-21G6 (Table 2, constant region not stated) (antibody, V domains shown, human kappa light chain; also called H3/L1) VH: QVQLVQSGAEVKKPGSSVKVSCKASGYTFTSYYMYWVRQAPGQGLEWIGGINPSNGGTNFNEKFKSKATITVDKSTSTAYMELSSLRSEDTAVYYCTRWGYDREWFAYWGQGTLVTVSS VL: DIVMTQSPATLSVSPGERATISCRSSKSLLHSNGNTYLYWFQQKPGQPPKVLIYRMSNLASGVPARFSGSGSGTDFTLTISSVEPEDFATYYCMQHLEYPFTFGGGTKLEIKR | kon [12]: 52000 M⁻¹ s⁻¹; koff [13]: 0.0065 s⁻¹
140 nM | 680 nM | H2-21G6 / L3-21G6 (Table 2, constant region not stated) (antibody, V domains shown, human kappa light chain; also called H2/L3) VH: QVQLVQSGAEVKKPGASVKVSCKASGYTFTSYYMYWVRQAPGQGLEWIGGINPSNGGTNFNEKFKSKATMTVDKSTSTAYMELRSLRSDDSAVYYCTRWGYDREWFAYWGQGTLVTVSS VL: DIVMTQTPLSLSYTPGQPASISCRSSKSLLHSNGNTYLYWFLQKPGQSPQLLIYRMSNLASGVPDRFSGSGSGTDFTLKISRVEAEDVGVYYCMQHLEYPFTFGQGTKLEIKR | –
1580 nM | 1000 nM | H1-21G6 / L3-21G6 (Table 2, constant region not stated) (antibody, V domains shown, human kappa light chain; also called H1/L3) VH: QVQLVQSGAEVVKPGASVKLSCKASGYTFTSYYMYWVKQAPGQGLEWIGGINPSNGGTNFNEKFKSKATLTVDKSASTAYMELSSLRSEDTAVYYCTRWGYDREWFAYWGQGTLVTVSS VL: DIVMTQTPLSLSYTPGQPASISCRSSKSLLHSNGNTYLYWFLQKPGQSPQLLIYRMSNLASGVPDRFSGSGSGTDFTLKISRVEAEDVGVYYCMQHLEYPFTFGQGTKLEIKR | –
100 to 430 nM | 320 nM | H1-21G6 / L1-21G6 (Table 2, constant region not stated) (antibody, V domains shown, human kappa light chain; also called H1/L1) VH: QVQLVQSGAEVVKPGASVKLSCKASGYTFTSYYMYWVKQAPGQGLEWIGGINPSNGGTNFNEKFKSKATLTVDKSASTAYMELSSLRSEDTAVYYCTRWGYDREWFAYWGQGTLVTVSS VL: DIVMTQSPATLSVSPGERATISCRSSKSLLHSNGNTYLYWFQQKPGQPPKVLIYRMSNLASGVPARFSGSGSGTDFTLTISSVEPEDFATYYCMQHLEYPFTFGGGTKLEIKR | koff [14]: 0.0065 s⁻¹; kon [15]: 43000 M⁻¹ s⁻¹
